These results are taken from patent US20250269051A1 (ALMAC DISCOVERY, published 2025).

One assay addresses T1, human ROR1-Fc (CHO) (human).
T1 construct: ROR1 extracellular domain fused to human Fc; also called huROR1-Fc; hROR1-Fc
Nature of the assay: ELISA on coated human ROR1-hFc, one concentration (5 µg/mL). The method, then:
(§1) In brief, ELISA method as follows. Wells coated with 100ng of ROR1-hFc antigen and incubated, covered, at room temperature for 2 hr. Plates washed 3×400ul per well with PBST (PBS+0.05% Tween 20 (v/v)), then blocked with 4% skimmed milk powder (w/v) in PBST for 1 hour at 37° C. Plates washed as before plus additional wash in PBS alone. HisMyc-tagged binding proteins were diluted in 4% milk PBST and incubated overnight at 4° C. Plates washed 3× with PBST, 3× PBS and binding detected using appropriate secondary detection antibody in 4% milk PBST, room temperature 1 hour. Secondary antibodies used include: [0658] Anti-c-Myc, HRP (Invitrogen #R951-25) [0659] Mouse anti-polyHis, HRP (Sigma #A7058)

A further assay deals with T2, human ROR2-Fc (CHO) (human).
T2 construct: also called hROR2-hFc
T2 sequence (chain, as listed by the source limits assumed): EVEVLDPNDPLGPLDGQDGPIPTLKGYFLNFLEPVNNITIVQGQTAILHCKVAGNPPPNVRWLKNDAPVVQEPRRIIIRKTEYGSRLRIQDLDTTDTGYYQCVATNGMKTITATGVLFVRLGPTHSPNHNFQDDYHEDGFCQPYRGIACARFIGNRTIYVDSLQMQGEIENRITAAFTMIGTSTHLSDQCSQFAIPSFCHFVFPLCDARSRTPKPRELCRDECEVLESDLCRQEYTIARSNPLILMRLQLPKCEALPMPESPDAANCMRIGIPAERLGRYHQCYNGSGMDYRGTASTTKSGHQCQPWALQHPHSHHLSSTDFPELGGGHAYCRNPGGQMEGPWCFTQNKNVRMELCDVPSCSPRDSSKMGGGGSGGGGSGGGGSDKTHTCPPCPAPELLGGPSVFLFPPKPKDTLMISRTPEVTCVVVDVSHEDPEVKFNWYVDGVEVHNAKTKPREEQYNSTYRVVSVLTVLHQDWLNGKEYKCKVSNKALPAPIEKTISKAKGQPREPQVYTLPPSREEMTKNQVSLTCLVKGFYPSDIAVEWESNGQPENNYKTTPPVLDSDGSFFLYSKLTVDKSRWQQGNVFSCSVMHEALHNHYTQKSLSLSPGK
Nature of the assay: ELISA; hROR2-hFc coated. Here is the method:
as §1
The same ELISA procedure was employed as described above but with either mROR1-hFc or hROR2-hFc coated on the plates.

T1 sequence (chain, as listed by the source limits assumed): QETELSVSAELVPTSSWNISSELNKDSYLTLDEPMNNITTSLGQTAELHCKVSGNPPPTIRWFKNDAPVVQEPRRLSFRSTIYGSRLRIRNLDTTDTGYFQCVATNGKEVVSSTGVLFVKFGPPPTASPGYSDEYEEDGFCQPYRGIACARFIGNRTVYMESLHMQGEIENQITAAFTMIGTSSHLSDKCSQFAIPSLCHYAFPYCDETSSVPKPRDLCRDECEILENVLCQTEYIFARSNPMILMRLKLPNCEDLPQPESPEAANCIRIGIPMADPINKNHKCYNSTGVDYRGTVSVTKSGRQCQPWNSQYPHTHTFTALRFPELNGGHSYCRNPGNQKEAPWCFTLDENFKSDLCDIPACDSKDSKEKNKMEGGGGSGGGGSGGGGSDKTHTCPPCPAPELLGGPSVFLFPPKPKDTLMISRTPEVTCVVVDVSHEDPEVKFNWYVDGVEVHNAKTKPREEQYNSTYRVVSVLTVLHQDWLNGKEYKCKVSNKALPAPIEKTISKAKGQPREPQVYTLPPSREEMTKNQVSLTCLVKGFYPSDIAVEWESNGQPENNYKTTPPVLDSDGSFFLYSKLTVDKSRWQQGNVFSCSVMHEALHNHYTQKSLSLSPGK

B1: AA5.S (VNAR)
VNAR: TRVDQSPSSLSASVGDRVTITCVLTGTGYGLYSSTYWYRKNPGSSDEERIIIGGRYSESVNKGSKSFTLTISSLQPEDSATYYCRAREARHPWLRQWYDGAGTKVEIKQ
notes: P3A1 G1 loop variant from the selection on streptavidin beads; also called P3A1 G1 loop variant AA5.S
Turning to B1, in the assay with human ROR1-Fc (CHO), the binding result is reported as “binds”.

B2: NAC6.S (VNAR)
VNAR: TRVDQSPSSLSASVGDRVTITCVLTDTRYALYSSTYWYRKNPGSTDEERISIGGRYSESVNKGSKSFTLTISSLQPEDSATYYCRAREARHPWLRQWYDGAGTKVEIKQ
notes: VNAR, P3A1 G1 loop variant; entry includes the HisMyc tag; also called P3A1 G1 NAC6.S; P3A1G1 NAC6.S
Take B2: the binding result in the assay with human ROR2-Fc (CHO) was “no binding”.

B3: AC5.S (VNAR)
VNAR: TRVDQSPSSLSASVGDRVTITCVLTDTSYGLYSSTYWYRKNPGSSNKERMSISGRYSESVNKGSKSFTLTISSLQPEDSATYYCRAREARHPWLRQWYDGAGTKVEIKQ
notes: P3A1 G1 loop variant from the immunotube selection; also called P3A1 G1 loop variant AC5.S
Regarding B3, in the assay with human ROR1-Fc (CHO), the binding result was “binds”.

B4: AE3.S (VNAR)
VNAR: TRVDQSPSSLSASVGDRVTITCVLTGTRYGLYSSTYWYRKNPGSSDEERISISGRYSESVNKGTKSFTLTISSLQPEDSATYYCRAREARHPWLRQWYDGAGTKVEIKQ
notes: VNAR, P3A1 G1 loop variant; entry includes the HisMyc tag; also called P3A1 G1 AE3.S; P3A1G1 AE3.S
Regarding B4, the binding result with human ROR2-Fc (CHO) is “no binding”.
